The assay has as its target T1, human APJ receptor (hAPJ) (human, UniProt P35414 1-380).
T1 sequence (looked up): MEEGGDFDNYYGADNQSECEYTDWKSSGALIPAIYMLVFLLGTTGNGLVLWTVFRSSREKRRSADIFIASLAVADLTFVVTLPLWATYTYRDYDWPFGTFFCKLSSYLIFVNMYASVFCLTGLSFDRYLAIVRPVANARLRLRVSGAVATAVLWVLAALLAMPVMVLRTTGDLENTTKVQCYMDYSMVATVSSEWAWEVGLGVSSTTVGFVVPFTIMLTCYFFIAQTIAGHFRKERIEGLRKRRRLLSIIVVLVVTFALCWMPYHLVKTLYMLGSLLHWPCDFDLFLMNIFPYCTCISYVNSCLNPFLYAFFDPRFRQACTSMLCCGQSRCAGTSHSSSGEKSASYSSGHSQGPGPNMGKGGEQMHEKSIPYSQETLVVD
The experiment in a line: cell-based or functional assay.

Bridges are numbered along the chain shown (N, C = ends). Where no end group is shown, it is not given here. [ ]: non-standard residue; d: D form. The star is where a group is joined. Palmitoyl = CCCCCCCCCCCCCCCC(=O)*; Cha = N[C@@H](CC1CCCCC1)C(=O)O; pGlu = O=C1CC[C@@H](C(=O)O)N1; NHPhenethyl = c1ccc(CCN*)cc1; Nle = CCCC[C@H](N)C(=O)O; Api = NC1(C(=O)O)CCNCC1; AEEA = NCCOCCOCC(=O)O; Aib = CC(C)(N)C(=O)O; Inp = O=C(O)C1CCNCC1

B1: Example 20: pE-R-P-R-L-C-H-K-Aib-P-Nle-C-F-OH (peptide)
peptide: [pGlu]RPRLCHK[Aib]P[Nle]CF-OH
modifications: disulfide 6-12
SMILES: CCCC[C@@H]1NC(=O)[C@@H]2CCCN2C(=O)C(C)(C)NC(=O)[C@H](CCCCN)NC(=O)[C@H](Cc2c[nH]cn2)NC(=O)[C@@H](NC(=O)[C@H](CC(C)C)NC(=O)[C@H](CCCNC(=N)N)NC(=O)[C@@H]2CCCN2C(=O)[C@H](CCCNC(=N)N)NC(=O)[C@@H]2CCC(=O)N2)CSSC[C@@H](C(=O)N[C@@H](Cc2ccccc2)C(=O)O)NC1=O
Take B1: the “hAPJ Ca2+ Flux EC50” value worked out at 173 nM.

B2: Example 1: pE-R-P-R-L-K-H-F-G-P-Nle-D-Phenethylamine (peptide)
peptide: [pGlu]RPRLKHFGP[Nle]D-NHPhenethyl
modifications: lactam 6-12
SMILES: CCCC[C@@H]1NC(=O)[C@@H]2CCCN2C(=O)CNC(=O)[C@H](Cc2ccccc2)NC(=O)[C@H](Cc2c[nH]cn2)NC(=O)[C@@H](NC(=O)[C@H](CC(C)C)NC(=O)[C@H](CCCNC(=N)N)NC(=O)[C@@H]2CCCN2C(=O)[C@H](CCCNC(=N)N)NC(=O)[C@@H]2CCC(=O)N2)CCCCNC(=O)C[C@@H](C(=O)NCCc2ccccc2)NC1=O
For B2, the “hAPJ Ca2+ Flux EC50” value came out at 90.1 nM.

B3: Example 14: pE-R-P-R-Cha-C-H-K-G-P-Cha-C-F-OH (peptide)
peptide: [pGlu]RPR[Cha]CHKGP[Cha]CF-OH
modifications: disulfide 6-12
SMILES: N=C(N)NCCC[C@H](NC(=O)[C@@H]1CCCN1C(=O)[C@H](CCCNC(=N)N)NC(=O)[C@@H]1CCC(=O)N1)C(=O)N[C@@H](CC1CCCCC1)C(=O)N[C@H]1CSSC[C@@H](C(=O)N[C@@H](Cc2ccccc2)C(=O)O)NC(=O)[C@H](CC2CCCCC2)NC(=O)[C@@H]2CCCN2C(=O)CNC(=O)[C@H](CCCCN)NC(=O)[C@H](Cc2c[nH]cn2)NC1=O
On to B3, for which the “hAPJ Ca2+ Flux EC50” value turned out to be 8.83 nM.

B4: Example 21: pE-R-P-R-L-C-H-(4-NH-Isn)-G-P-Nle-C-F-OH (peptide)
peptide: [pGlu]RPRLCH[Api]GP[Nle]CF-OH
modifications: disulfide 6-12
SMILES: CCCC[C@@H]1NC(=O)[C@@H]2CCCN2C(=O)CNC(=O)C2(CCNCC2)NC(=O)[C@H](Cc2c[nH]cn2)NC(=O)[C@@H](NC(=O)[C@H](CC(C)C)NC(=O)[C@H](CCCNC(=N)N)NC(=O)[C@@H]2CCCN2C(=O)[C@H](CCCNC(=N)N)NC(=O)[C@@H]2CCC(=O)N2)CSSC[C@@H](C(=O)N[C@@H](Cc2ccccc2)C(=O)O)NC1=O
As for B4, the “hAPJ Ca2+ Flux EC50” value was determined as 75.8 nM.

B5: Example 23: pE-R-P-R-L-C-K(Palmitoyl)-K-G-P-Nle-C-F-OH (peptide)
peptide: [pGlu]RPRLCK(Palmitoyl)KGP[Nle]CF-OH
modifications: disulfide 6-12
SMILES: CCCCCCCCCCCCCCCC(=O)NCCCC[C@@H]1NC(=O)[C@@H](NC(=O)[C@H](CC(C)C)NC(=O)[C@H](CCCNC(=N)N)NC(=O)[C@@H]2CCCN2C(=O)[C@H](CCCNC(=N)N)NC(=O)[C@@H]2CCC(=O)N2)CSSC[C@@H](C(=O)N[C@@H](Cc2ccccc2)C(=O)O)NC(=O)[C@H](CCCC)NC(=O)[C@@H]2CCCN2C(=O)CNC(=O)[C@H](CCCCN)NC1=O
Turning to B5, the “hAPJ Ca2+ Flux EC50” value amounted to 52.4 nM.

B6: Example 13: pE-R-P-R-L-C-H-K-G-P-Nle-C-f-OH (peptide)
peptide: [pGlu]RPRLCHKGP[Nle]C[dF]-OH
modifications: disulfide 6-12
SMILES: CCCC[C@@H]1NC(=O)[C@@H]2CCCN2C(=O)CNC(=O)[C@H](CCCCN)NC(=O)[C@H](Cc2c[nH]cn2)NC(=O)[C@@H](NC(=O)[C@H](CC(C)C)NC(=O)[C@H](CCCNC(=N)N)NC(=O)[C@@H]2CCCN2C(=O)[C@H](CCCNC(=N)N)NC(=O)[C@@H]2CCC(=O)N2)CSSC[C@@H](C(=O)N[C@H](Cc2ccccc2)C(=O)O)NC1=O
As for B6, the “hAPJ Ca2+ Flux EC50” value is 2.26 nM.

B7: Example 17: H-R-R-P-R-L-C-H-K-G-P-Nle-C-F-OH (peptide)
peptide: H-RRPRLCHKGP[Nle]CF-OH
modifications: disulfide 6-12
SMILES: CCCC[C@@H]1NC(=O)[C@@H]2CCCN2C(=O)CNC(=O)[C@H](CCCCN)NC(=O)[C@H](Cc2c[nH]cn2)NC(=O)[C@@H](NC(=O)[C@H](CC(C)C)NC(=O)[C@H](CCCNC(=N)N)NC(=O)[C@@H]2CCCN2C(=O)[C@H](CCCNC(=N)N)NC(=O)[C@@H](N)CCCNC(=N)N)CSSC[C@@H](C(=O)N[C@@H](Cc2ccccc2)C(=O)O)NC1=O
B7: the “hAPJ Ca2+ Flux EC50” value was 3.29 nM.

B8: Example 16: H-R-P-R-L-C-H-K-G-P-Nle-C-F-OH (peptide)
peptide: H-RPRLCHKGP[Nle]CF-OH
modifications: disulfide 5-11
SMILES: CCCC[C@@H]1NC(=O)[C@@H]2CCCN2C(=O)CNC(=O)[C@H](CCCCN)NC(=O)[C@H](Cc2c[nH]cn2)NC(=O)[C@@H](NC(=O)[C@H](CC(C)C)NC(=O)[C@H](CCCNC(=N)N)NC(=O)[C@@H]2CCCN2C(=O)[C@@H](N)CCCNC(=N)N)CSSC[C@@H](C(=O)N[C@@H](Cc2ccccc2)C(=O)O)NC1=O
In the case of B8, the “hAPJ Ca2+ Flux EC50” value was found to be 1.43 nM.

B9: Example 19: pE-R-P-R-L-C-H-F-G-P-Nle-C-Phenethylamine (peptide)
peptide: [pGlu]RPRLCHFGP[Nle]C-NHPhenethyl
modifications: disulfide 6-12
SMILES: CCCC[C@@H]1NC(=O)[C@@H]2CCCN2C(=O)CNC(=O)[C@H](Cc2ccccc2)NC(=O)[C@H](Cc2c[nH]cn2)NC(=O)[C@@H](NC(=O)[C@H](CC(C)C)NC(=O)[C@H](CCCNC(=N)N)NC(=O)[C@@H]2CCCN2C(=O)[C@H](CCCNC(=N)N)NC(=O)[C@@H]2CCC(=O)N2)CSSC[C@@H](C(=O)NCCc2ccccc2)NC1=O
Turning to B9, the “hAPJ Ca2+ Flux EC50” value was found to be 8.46 nM.

B10: Example 15: pE-R-P-R-L-C-F-K-G-P-Nle-C-F-OH (peptide)
peptide: [pGlu]RPRLCFKGP[Nle]CF-OH
modifications: disulfide 6-12
SMILES: CCCC[C@@H]1NC(=O)[C@@H]2CCCN2C(=O)CNC(=O)[C@H](CCCCN)NC(=O)[C@H](Cc2ccccc2)NC(=O)[C@@H](NC(=O)[C@H](CC(C)C)NC(=O)[C@H](CCCNC(=N)N)NC(=O)[C@@H]2CCCN2C(=O)[C@H](CCCNC(=N)N)NC(=O)[C@@H]2CCC(=O)N2)CSSC[C@@H](C(=O)N[C@@H](Cc2ccccc2)C(=O)O)NC1=O
Turning to B10, the “hAPJ Ca2+ Flux EC50” value was 3.53 nM.

Consider [pGlu]RPRLCHKGP[Nle]C-NHPhenethyl (disulfide 6-12) [Example 12: pE-R-P-R-L-C-H-K-G-P-Nle-C-Phenethylamine], for which the “hAPJ Ca2+ Flux EC50” value was determined as 2.07 nM.

B11: Example 10: pE-R-P-R-L-C-Aib-K-G-P-Nle-C-f-OH (peptide)
peptide: [pGlu]RPRLC[Aib]KGP[Nle]C[dF]-OH
modifications: disulfide 6-12
SMILES: CCCC[C@@H]1NC(=O)[C@@H]2CCCN2C(=O)CNC(=O)[C@H](CCCCN)NC(=O)C(C)(C)NC(=O)[C@@H](NC(=O)[C@H](CC(C)C)NC(=O)[C@H](CCCNC(=N)N)NC(=O)[C@@H]2CCCN2C(=O)[C@H](CCCNC(=N)N)NC(=O)[C@@H]2CCC(=O)N2)CSSC[C@@H](C(=O)N[C@H](Cc2ccccc2)C(=O)O)NC1=O
In the case of B11, the “hAPJ Ca2+ Flux EC50” value turned out to be 2.54 nM.

B12: Example 18: H-Isn-R-P-R-L-C-H-K-G-P-Nle-C-F-OH (peptide)
peptide: H-[Inp]RPRLCHKGP[Nle]CF-OH
modifications: disulfide 6-12
SMILES: CCCC[C@@H]1NC(=O)[C@@H]2CCCN2C(=O)CNC(=O)[C@H](CCCCN)NC(=O)[C@H](Cc2c[nH]cn2)NC(=O)[C@@H](NC(=O)[C@H](CC(C)C)NC(=O)[C@H](CCCNC(=N)N)NC(=O)[C@@H]2CCCN2C(=O)[C@H](CCCNC(=N)N)NC(=O)C2CCNCC2)CSSC[C@@H](C(=O)N[C@@H](Cc2ccccc2)C(=O)O)NC1=O
In the case of B12, the “hAPJ Ca2+ Flux EC50” value came out at 1.62 nM.

B13: Example 24: Palmitoyl-O2Oc-Q-R-P-R-L-C-H-K-G-P-Nle-C-F-OH (peptide)
peptide: Palmitoyl-[AEEA]QRPRLCHKGP[Nle]CF-OH
modifications: disulfide 7-13
SMILES: CCCCCCCCCCCCCCCC(=O)NCCOCCOCC(=O)N[C@@H](CCC(N)=O)C(=O)N[C@@H](CCCNC(=N)N)C(=O)N1CCC[C@H]1C(=O)N[C@@H](CCCNC(=N)N)C(=O)N[C@@H](CC(C)C)C(=O)N[C@H]1CSSC[C@@H](C(=O)N[C@@H](Cc2ccccc2)C(=O)O)NC(=O)[C@H](CCCC)NC(=O)[C@@H]2CCCN2C(=O)CNC(=O)[C@H](CCCCN)NC(=O)[C@H](Cc2c[nH]cn2)NC1=O
As for B13, the “hAPJ Ca2+ Flux EC50” value turned out to be 32.6 nM.

B14: Example 11: p-Isn-R-P-R-L-C-Aib-K-G-P-Nle-C-f-OH (peptide)
peptide: [Inp]RPRLC[Aib]KGP[Nle]C[dF]-OH
modifications: disulfide 6-12; N-terminus assumed
SMILES: CCCC[C@@H]1NC(=O)[C@@H]2CCCN2C(=O)CNC(=O)[C@H](CCCCN)NC(=O)C(C)(C)NC(=O)[C@@H](NC(=O)[C@H](CC(C)C)NC(=O)[C@H](CCCNC(=N)N)NC(=O)[C@@H]2CCCN2C(=O)[C@H](CCCNC(=N)N)NC(=O)C2CCNCC2)CSSC[C@@H](C(=O)N[C@H](Cc2ccccc2)C(=O)O)NC1=O
With B14, the “hAPJ Ca2+ Flux EC50” value amounted to 3.52 nM.

B15: Example 2: pE-R-P-R-L-K-H-F-G-P-Nle-E-Phenethylamine (peptide)
peptide: [pGlu]RPRLKHFGP[Nle]E
modifications: lactam 6-12 (inferred); not fully specified (C-terminus); printed as pE-R-P-R-L-K-H-F-G-P-Nle-E-Phenethylamine
For the molecule B15, the “hAPJ Ca2+ Flux EC50” value turned out to be 133 nM.

B16: Example 22: pE-R-P-R-L-C-H-K-G-P-Nle-C-K(Palmitoyl)-OH (peptide)
peptide: [pGlu]RPRLCHKGP[Nle]CK(Palmitoyl)-OH
modifications: disulfide 6-12
SMILES: CCCCCCCCCCCCCCCC(=O)NCCCC[C@H](NC(=O)[C@@H]1CSSC[C@H](NC(=O)[C@H](CC(C)C)NC(=O)[C@H](CCCNC(=N)N)NC(=O)[C@@H]2CCCN2C(=O)[C@H](CCCNC(=N)N)NC(=O)[C@@H]2CCC(=O)N2)C(=O)N[C@@H](Cc2c[nH]cn2)C(=O)N[C@@H](CCCCN)C(=O)NCC(=O)N2CCC[C@H]2C(=O)N[C@@H](CCCC)C(=O)N1)C(=O)O
As for B16, the “hAPJ Ca2+ Flux EC50” value was 42 nM.

The values are drawn from US8673848 (Novartis, dated 2014).
